{
  "source": "patent CN114790245A",
  "about": "(CHENGDU KANGHONG BIOLOGICAL TECH CO LTD, dated 2022)",
  "binders": {"B1": {"name": "KH12 (antibody, human IgG1, kappa, V domains shown)", "VH": "QVQLVQSGAEVKKPGASVKVSCKASGYTFTNYWMHWVRQAPGQGLEWMGAIYPGDSDTSYNQKFKGRVTMTRDTSTSTVYMELSSLRSEDTAVYYCARERAYYRYDEDFDYWGQGTLVTVSS", "VL": "EIVMTQSPPTLSLSPGERVTLSCSATSIINSNYFHWYQQKPGQAPRLLIYRTSNLASGIPARFSGSGSGTDFTLTISSLQPEDFAVYYCQQGSSLPRTFGGGTKLEIKR"}, "B2": {"name": "KH15 (antibody, human IgG4 S228P, kappa, V domains shown)", "VH": "EVQLVQSGAEVKKPGATVKISCKVSGYTFTNYWMHWVQQAPGKGLEWMGAIYPGDSDTSYNQKFKGRVTITADTSTDTAYMELSSLRSEDTAVYYCTRERAYYRYDEDFDYWGQGTLVTVSS", "VL": "B1 VL"}, "B3": {"name": "KH14 (antibody, human IgG1, kappa, V domains shown)", "VH": "B1 VH", "VL": "EIVLTQSPAIMSASPGERVTMTCSATSIINSNYFHWYQQKPGTSPRRWIYRTSNLASGVPARFSGSGSGTDYSLTISSMEPEDAATYYCQQGSSLPRTFGGGTKLEIKR"}, "B4": {"name": "KH01 (antibody, human IgG4 S228P, kappa, V domains shown)", "VH": "EVQLHQSGAELVKPGASVRLSCTASGFNIKDTYIFWVKQRPEQGLEWIGRIDPENDNTKFDPKIQGKATLTADTSSNTAYLQLGSLTSEDSAIYYCAKGGGLFAYWGQGTLVSVSA", "VL": "DIQMTQSPSSLSASLGGKVTITCKASHDINKYIAWYQHKPGSGPRLLIHFTSTLQSDIPSRFSGSGSGRDYSFSISNLEPEDIATYYCLQYDNLFTFGGGTKLEIKR"}, "B5": {"name": "KH02 (antibody, human IgG4 S228P, kappa, V domains shown)", "VH": "B4 VH with H5Q, E42K, F60Y, G84S", "VL": "B4 VL with A13T, K24E, K31N, S42K, F50Y, D57G, R69K"}, "B6": {"name": "KH11 (antibody, human IgG4 S228P, kappa)", "heavy": "not shown", "light": "EIVLTQSPTTMAASPGEKITITCSATSIINSNYFHWYQQKPGFSPKLLIYRTSNLASGVPARFSGSGSGTSYSLTIGTMEAEDVATYYCQQGSSLPRTFGGGTKLEIKRTVAAPSVFIFPPSDEQLKSGTASVVCLLNNFYPREAKVQWKVDNALQSGNSQESVTEQDSKDSTYSLSSTLTLSKADYEKHKVYACEVTHQGLSSPVTKSFNRGEC"}, "B7": {"name": "KH10 (antibody, human IgG1, kappa)", "heavy": "not shown", "light": "B6 light"}, "B8": {"name": "KH20 (antibody, V domains shown)", "VH": "not shown", "VL": "DIKMTQSPSSMSASPGERVTITCKASQDINSYLSWFQQKSGKFPKTLIYRANRLVDGVASRFSGSGSGQDYSLTISSLDYEDMGIYYCVQYDEFPLTFGAGTKLELK"}, "B9": {"name": "KH16 (antibody, human IgG4 S228P, kappa, V domains shown)", "VH": "B2 VH", "VL": "DIQMTQSPSSLSASVGDRVTITCSATSIINSNYFHWYQQKPGKAPKLLIYRTSNLASGVPSRFSGSGSGTDFTFTISSLQPEDIATYYCQQGSSLPRTFGGGTKLEIKR"}, "B10": {"name": "KH13 (antibody, human IgG1, kappa, V domains shown)", "VH": "B1 VH", "VL": "B9 VL"}, "B11": {"name": "KH21 (antibody, V domains shown)", "VH": "EVQLQQSGAELVKPGASVKLSCTGSGFNIKDIYMFWVKQRPEQGLEWIGRIDPENGNIKYDPKFQGKATITAETSSNTVYLQLNSLTSEDTAVYYCSRGGGLFAYWGQGTLVTVSA", "VL": "DIQMTQSPSSLSASLGGKVTITCKASQDINKYIAWYQHKPGKGPRLLIHYTSTLQPGIPSRFSGSGSGSDYSFSISTLEPEDIATYYCLQYDDLWTFGGGTKLEIK"}, "B12": {"name": "KH19 (antibody, V domains shown)", "VH": "EVQLQQSGAEVVRPGASVKLSCKPSGFNIKDYYMFWLRQRPDQGLEWIGRIDPENGNTVYDPRFQDRASITAVTSSNTAFLQVNSLTSEDTAVYYCARAGSIPSYWGQGTLVTVSA", "VL": "DIQMTQSPSSLSASLGDKITITCKASQDINKYIAWYQHKPGKGPRLLIHYTSSLHQDIPSRFSGSGSGRDYSFSISNLEPEDFAIYYCLQYDDLWTFGGGTKVEIK"}, "B13": {"name": "KH05 (antibody, human IgG4 S228P, kappa, V domains shown)", "VH": "B4 VH with H5Q, E42K, F60Y, G84S", "VL": "DIQMTQSPSSLSASVGDRVTITCEASHDINNYIAWYQQKPGQPPKLLIYYTSTLQSGVPSRFSGSGSGTEFTLTISNLQPEDFATYYCLQYDNLFTFGQGTKVEIKR"}, "B14": {"name": "KH07 (antibody, human IgG4 S228P, kappa, V domains shown)", "VH": "B4 VH with H5Q, E42K, F60Y, G84S", "VL": "B13 VL with S10A, L11M, E70D, L73F, N77S, F83I"}, "B15": {"name": "KH18 (antibody, human IgG4 S228P, kappa, V domains shown)", "VH": "QVQLLESGAELVRPGSSVKISCKASGYAFTNYWMHWVKQRPGQGLEWIGAIYPGDSDTSYNQKFKGKATLTADESSSTAYMQLSSLRSEDSAVYSCARERAYYRYDEDFDYWGQGTTVTVSS", "VL": "B9 VL"}, "B16": {"name": "KH09 (antibody, human IgG4 S228P, kappa, V domains shown)", "VH": "EVQLVESGGALVKPGGSLRLSCAASGFNIKDTYIFWVRQMPRKGLEWIGRIDPENDNTKYDPKIQGKATITADTSTDTAYMELSSLTSEDTAVYYCAKGGGLFAYWGQGTLVTVSS", "VL": "B13 VL with S10A, L11M, Q42K, P43A, E70D, L73F, N77S, F83I"}, "B17": {"name": "KH03 (antibody, human IgG4 S228P, kappa)", "heavy": "not shown", "light": "DIQMTQSPSAMSASVGDRVTITCEASHDINNYIAWYQQKPGKAPKLLIYYTSTLQSGVPSRFSGSGSGTEFTLTISNLQPEDFATYYCLQYDNLFTFGQGTKVEIKRTVAAPSVFIFPPSDEQLKSGTASVVCLLNNFYPREAKVQWKVDNALQSGNSQESVTEQDSKDSTYSLSSTLTLSKADYEKHKVYACEVTHQGLSSPVTKSFNRGEC"}, "B18": {"name": "KH04 (antibody, human IgG4 S228P, kappa)", "heavy": "not shown", "light": "B17 light with A10S, M11L"}},
  "note": "Changes are numbered by the printed parent chain.",
  "data": [
    {"target": "T1, 血浆激肽释放酶(plasma kallikrein,PK) (human, UniProt P03952 20-638)", "T1 sequence (P03952 20-638 limits assumed)": "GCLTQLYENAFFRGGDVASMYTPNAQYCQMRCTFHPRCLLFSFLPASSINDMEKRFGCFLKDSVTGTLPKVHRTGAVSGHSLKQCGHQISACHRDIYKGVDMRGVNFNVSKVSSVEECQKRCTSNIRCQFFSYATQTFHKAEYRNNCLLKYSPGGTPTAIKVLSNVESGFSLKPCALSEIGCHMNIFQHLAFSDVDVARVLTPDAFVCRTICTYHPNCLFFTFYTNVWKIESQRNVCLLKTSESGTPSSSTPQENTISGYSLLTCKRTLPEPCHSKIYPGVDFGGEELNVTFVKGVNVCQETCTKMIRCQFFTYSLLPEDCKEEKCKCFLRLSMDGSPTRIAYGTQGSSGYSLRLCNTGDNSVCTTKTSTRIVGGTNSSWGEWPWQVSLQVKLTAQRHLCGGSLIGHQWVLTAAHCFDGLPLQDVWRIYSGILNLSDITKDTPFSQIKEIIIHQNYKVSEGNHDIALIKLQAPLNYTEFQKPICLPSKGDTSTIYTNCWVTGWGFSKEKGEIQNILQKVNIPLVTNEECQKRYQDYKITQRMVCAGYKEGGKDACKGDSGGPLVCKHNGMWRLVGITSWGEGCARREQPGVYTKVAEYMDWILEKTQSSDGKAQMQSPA", "assay": "cell-based or functional assay", "units": {"IC50(nM), PK enzyme activity on H-Pro-Phe-Arg-AMC (fluorescence)": "nM"}, "values": [
      {"binder": "B1", "IC50(nM), PK enzyme activity on H-Pro-Phe-Arg-AMC (fluorescence)": 0.174},
      {"binder": "B2", "IC50(nM), PK enzyme activity on H-Pro-Phe-Arg-AMC (fluorescence)": 0.224},
      {"binder": "B3", "IC50(nM), PK enzyme activity on H-Pro-Phe-Arg-AMC (fluorescence)": 0.398},
      {"binder": "B4", "IC50(nM), PK enzyme activity on H-Pro-Phe-Arg-AMC (fluorescence)": 0.297},
      {"binder": "B5", "IC50(nM), PK enzyme activity on H-Pro-Phe-Arg-AMC (fluorescence)": 0.235},
      {"binder": "B6", "IC50(nM), PK enzyme activity on H-Pro-Phe-Arg-AMC (fluorescence)": 0.188},
      {"binder": "B7", "IC50(nM), PK enzyme activity on H-Pro-Phe-Arg-AMC (fluorescence)": 0.227},
      {"binder": "B8", "IC50(nM), PK enzyme activity on H-Pro-Phe-Arg-AMC (fluorescence)": 1.1},
      {"binder": "B9", "IC50(nM), PK enzyme activity on H-Pro-Phe-Arg-AMC (fluorescence)": 0.23},
      {"binder": "B10", "IC50(nM), PK enzyme activity on H-Pro-Phe-Arg-AMC (fluorescence)": 0.221},
      {"binder": "B11", "IC50(nM), PK enzyme activity on H-Pro-Phe-Arg-AMC (fluorescence)": 0.82},
      {"binder": "B12", "IC50(nM), PK enzyme activity on H-Pro-Phe-Arg-AMC (fluorescence)": 0.87}
    ]},
    {"target": "T1, 血浆激肽释放酶(plasma kallikrein,PK)", "assay": "cell-based or functional assay", "remark": "another data set of the same source", "units": {"IC50(nM), PK activity in human plasma activated with Factor XIIa (H-Pro-Phe-Arg-AMC)": "nM"}, "values": [
      {"binder": "B4", "IC50(nM), PK activity in human plasma activated with Factor XIIa (H-Pro-Phe-Arg-AMC)": 0.753},
      {"binder": "B13", "IC50(nM), PK activity in human plasma activated with Factor XIIa (H-Pro-Phe-Arg-AMC)": 0.921},
      {"binder": "B14", "IC50(nM), PK activity in human plasma activated with Factor XIIa (H-Pro-Phe-Arg-AMC)": 0.863},
      {"binder": "B5", "IC50(nM), PK activity in human plasma activated with Factor XIIa (H-Pro-Phe-Arg-AMC)": 0.52},
      {"binder": "B6", "IC50(nM), PK activity in human plasma activated with Factor XIIa (H-Pro-Phe-Arg-AMC)": 0.103},
      {"binder": "B8", "IC50(nM), PK activity in human plasma activated with Factor XIIa (H-Pro-Phe-Arg-AMC)": 1.09},
      {"binder": "B15", "IC50(nM), PK activity in human plasma activated with Factor XIIa (H-Pro-Phe-Arg-AMC)": 0.419},
      {"binder": "B11", "IC50(nM), PK activity in human plasma activated with Factor XIIa (H-Pro-Phe-Arg-AMC)": 1.29},
      {"binder": "B16", "IC50(nM), PK activity in human plasma activated with Factor XIIa (H-Pro-Phe-Arg-AMC)": 0.764},
      {"binder": "B12", "IC50(nM), PK activity in human plasma activated with Factor XIIa (H-Pro-Phe-Arg-AMC)": 0.93},
      {"binder": "B17", "IC50(nM), PK activity in human plasma activated with Factor XIIa (H-Pro-Phe-Arg-AMC)": 0.949},
      {"binder": "B18", "IC50(nM), PK activity in human plasma activated with Factor XIIa (H-Pro-Phe-Arg-AMC)": 0.987}
    ]}
  ]
}
